± gives the uncertainty stated by the source.
Assay: self-splicing fitness, log relative to wild type (ln ratio); higher = more splicing; Tetrahymena group I intron in knt gene, E. coli kanamycin selection, DiMSum; sequences stand for … in CUCUCU…GGAGGGAAAAGUUAUCAGGCAUGCACCUGGUAGCUAGUCUUUAAACCAAUAGAUUGCAUCGGUUUAAAAGGCAAGACCGUCAAAUUGCGGGAAAGGGGUCAACAGCCGUUCAGUACCAAGUCUCAGGGGAAACUUUGAGAUGGCCUUGCAAAGGGUAUGGUAAUAAGCUGACGGACAUGGUCCUAACCACGCAGCCAAGUCCUAAGUCAACAGAUCUUCUGUUGAUAUGGAUGCAGUUCACAGACUAAAUGUCGGUCGGGGAAGAUGUAUUCUUCUCAUAAGAUAUAGUCGGACCUCUCCUUAAUGGGAGCUAGCGGAUGAAGUGAUGCAACACUGGAGCCGCUGGGAACUAAUUUGUAUGCGAAAGUAUAUUGAUUAGUUUUGGAGUACUCGUGGUCG
Procedure, shortened: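 Pooled colonies went to amplicon sequencing on an Illumina HiSeq 2500 after six replicate transformations. The plates were LB agar with 100 μg/mL carbenicillin, 50 μM IPTG and 0.2% rhamnose, with or without 25 μg/mL kanamycin, incubated overnight at 37°C or 30°C. The E. coli BL21(DE3) library had all eight P1ex-region intron nucleotides randomised, the intron placed in the knt kanamycin-resistance gene on pET-22b(+). DiMSum fitness is the error-weighted combination of replicate fold changes, kanamycin against none, normalised to wild type.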

Sequence	self-splicing fitness (ln) (30 °C)	self-splicing fitness (ln) (37 °C)
UUAUAGCAAUAUUACGAGCG	-0.835 ± 0.28	-0.754 ± 0.29
UUAUAGCAAUAUUACGAUCU	-1.74 ± 0.32	-1.17 ± 0.25
UUAUAGCAAUAUUACGCCAG	-1.64 ± 0.25	-0.566 ± 0.27
UUAUAGCAAUAUUACGCGGA	-1.6 ± 0.12	-0.96 ± 0.14
UUAUAGCAAUAUUACGCUAG	-1.92 ± 0.2	-0.0618 ± 0.24
UUAUAGCAAUAUUACGCUUG	-1.46 ± 0.19	-0.162 ± 0.22
UUAUAGCAAUAUUACGGAAA	-2.13 ± 0.22	-1.67 ± 0.23
UUAUAGCAAUAUUACGGAAU	-3.67 ± 0.36	
UUAUAGCAAUAUUACGGCCC		-0.921 ± 0.39
UUAUAGCAAUAUUACGGUUC	-2.77 ± 0.23	-2.16 ± 0.25
UUAUAGCAAUAUUACGUAAA	-1.34 ± 0.19	-1.58 ± 0.22
UUAUAGCAAUAUUACGUCUG	-0.366 ± 0.11	-0.511 ± 0.13
UUAUAGCAAUAUUACGUUUC	-4.48 ± 0.3	-3.31 ± 0.32
UUCAAGCAAUAUUACGACAA	0.0996 ± 0.083	-0.304 ± 0.085
UUCAAGCAAUAUUACGACGG	-1.5 ± 0.11	-0.143 ± 0.12
UUCAAGCAAUAUUACGAUUU	-3.24 ± 0.21	-1.12 ± 0.17
UUCAAGCAAUAUUACGCAAG	-2.1 ± 0.2	-0.676 ± 0.17
UUCAAGCAAUAUUACGCCAA	-0.664 ± 0.11	-0.538 ± 0.11
UUCAAGCAAUAUUACGCCAU	-3.57 ± 0.4	-2.88 ± 0.43
UUCAAGCAAUAUUACGCCGG	-0.231 ± 0.097	-0.469 ± 0.13
UUCAAGCAAUAUUACGCGAG	-2.19 ± 0.096	-1.33 ± 0.1
UUCAAGCAAUAUUACGCGGG	-3.35 ± 0.28	-1.95 ± 0.21
UUCAAGCAAUAUUACGCUGA	-2.5 ± 0.16	-2.33 ± 0.21
UUCAAGCAAUAUUACGCUGU	-2.98 ± 0.17	-1.19 ± 0.14
UUCAAGCAAUAUUACGGACG	-1.48 ± 0.15	-0.868 ± 0.18

Sequence	self-splicing fitness (ln) (30 °C)	self-splicing fitness (ln) (37 °C)
UUCAAGCAAUAUUACGGGUA	-0.67 ± 0.085	-0.182 ± 0.08
UUCAAGCAAUAUUACGGUGA	-0.763 ± 0.093	0.168 ± 0.092
UUCAAGCAAUAUUACGUGUA	-1.11 ± 0.056	-0.453 ± 0.059
UUCAAGCAAUAUUACGUGUG	-1.25 ± 0.056	-0.551 ± 0.07
UUCAAGCAAUAUUACGUGUU	-3.23 ± 0.13	-1.72 ± 0.11
UUCAAGCAAUAUUACGUUGC		-3.55 ± 0.46
UUCAAGCAAUAUUACGUUUA	-1.49 ± 0.087	-0.461 ± 0.082
UUCCAGCAAUAUUACGAACA	-1.42 ± 0.21	-0.887 ± 0.17
UUCCAGCAAUAUUACGACAA	-0.945 ± 0.13	0.128 ± 0.16
UUCCAGCAAUAUUACGACAU	-2.874 ± 0.018	-1.61 ± 0.035
UUCCAGCAAUAUUACGAGAA	-1.79 ± 0.17	-0.442 ± 0.16
UUCCAGCAAUAUUACGAGGU	-1.96 ± 0.17	-1.87 ± 0.16
UUCCAGCAAUAUUACGAGUU	-3.21 ± 0.13	-1.6 ± 0.092
UUCCAGCAAUAUUACGAUAA	0.0765 ± 0.06	0.459 ± 0.071
UUCCAGCAAUAUUACGAUGC	-3.4 ± 0.23	-2.79 ± 0.23
UUCCAGCAAUAUUACGCCCC	-2.4 ± 0.25	
UUCCAGCAAUAUUACGCCCG	-1.33 ± 0.15	-1.23 ± 0.17
UUCCAGCAAUAUUACGCCGA	-0.126 ± 0.13	0.309 ± 0.16
UUCCAGCAAUAUUACGCCGG	-3.4 ± 0.33	-2.98 ± 0.48
UUCCAGCAAUAUUACGCGCU	-3.9 ± 0.3	
UUCCAGCAAUAUUACGCGGC	-3.73 ± 0.47	-1.38 ± 0.4
UUCCAGCAAUAUUACGCUAG	-2.89 ± 0.17	-1.96 ± 0.2
UUCCAGCAAUAUUACGCUCU	-3.04 ± 0.17	-1.26 ± 0.14
UUCCAGCAAUAUUACGGAAA	-1.86 ± 0.13	-1.34 ± 0.11
UUCCAGCAAUAUUACGGCCG	-2.49 ± 0.29	-0.492 ± 0.24

Sequence	self-splicing fitness (ln) (30 °C)	self-splicing fitness (ln) (37 °C)
UUCCAGCAAUAUUACGGCGA	-0.331 ± 0.076	-0.0354 ± 0.097
UUCCAGCAAUAUUACGGCGU	-1.42 ± 0.079	-1.19 ± 0.091
UUCCAGCAAUAUUACGGUGA	-0.226 ± 0.061	0.234 ± 0.077
UUCCAGCAAUAUUACGUAAC	-2.44 ± 0.25	-2.08 ± 0.38
UUCCAGCAAUAUUACGUCGG	-3.28 ± 0.23	-3.13 ± 0.4
UUCCAGCAAUAUUACGUGAA	0.179 ± 0.072	-0.102 ± 0.094
UUCCAGCAAUAUUACGUGCG	-1.88 ± 0.1	-1.59 ± 0.11
UUCCAGCAAUAUUACGUGUC	-2.18 ± 0.086	-1.48 ± 0.098
UUCCAGCAAUAUUACGUUAA	-1.16 ± 0.079	0.606 ± 0.093
UUCCAGCAAUAUUACGUUCG	-2.67 ± 0.16	-1.7 ± 0.23
UUCCAGCAAUAUUACGUUGU	-2.93 ± 0.21	-2.74 ± 0.27
UUCGAGCAAUAUUACGAAUG	-3.37 ± 0.47	-2.26 ± 0.31
UUCGAGCAAUAUUACGAGAG	-3.55 ± 0.44	-2.72 ± 0.48
UUCGAGCAAUAUUACGAGCC	-3.05 ± 0.21	-2.68 ± 0.36
UUCGAGCAAUAUUACGAGUG	-1.81 ± 0.17	-0.223 ± 0.15
UUCGAGCAAUAUUACGCCCA	-2.1 ± 0.31	-1.15 ± 0.22
UUCGAGCAAUAUUACGCCUC	-3.3 ± 0.4	-1.3 ± 0.4
UUCGAGCAAUAUUACGCGAC	-3.69 ± 0.32	-1.18 ± 0.19
UUCGAGCAAUAUUACGGCCA		-0.028 ± 0.31
UUCGAGCAAUAUUACGGCCG		-1.41 ± 0.35
UUCGAGCAAUAUUACGGCCU	-3.17 ± 0.33	-2.84 ± 0.35
UUCGAGCAAUAUUACGGGCC	-3.79 ± 0.32	-2.21 ± 0.33
UUCGAGCAAUAUUACGGGGA	-1.7 ± 0.18	-0.829 ± 0.19
UUCGAGCAAUAUUACGGGGG	-2.88 ± 0.3	-2.23 ± 0.42
UUCGAGCAAUAUUACGUAAA	-2.48 ± 0.19	-1.07 ± 0.16

Sequence	self-splicing fitness (ln) (30 °C)	self-splicing fitness (ln) (37 °C)
UUCGAGCAAUAUUACGUAAU	-2.06 ± 0.26	-1.9 ± 0.36
UUCGAGCAAUAUUACGUAGA	-3.11 ± 0.16	-1.97 ± 0.17
UUCGAGCAAUAUUACGUCAA	-1.54 ± 0.2	-2.38 ± 0.37
UUCGAGCAAUAUUACGUCCU	-3.78 ± 0.47	-2.4 ± 0.41
UUCGAGCAAUAUUACGUGAA	-1.55 ± 0.27	1.01 ± 0.28
UUCGAGCAAUAUUACGUGGU	-3.49 ± 0.28	-3.18 ± 0.2
UUCUAGCAAUAUUACGAACA		-0.35 ± 0.37
UUCUAGCAAUAUUACGACUA	-1.83 ± 0.31	-1.19 ± 0.21
UUCUAGCAAUAUUACGAUGA	-0.819 ± 0.19	-0.0657 ± 0.2
UUCUAGCAAUAUUACGAUGG	-2.49 ± 0.19	-1.02 ± 0.34
UUCUAGCAAUAUUACGAUUC	-1.98 ± 0.34	-2.5 ± 0.49
UUCUAGCAAUAUUACGCACU	-1.79 ± 0.29	-1.69 ± 0.38
UUCUAGCAAUAUUACGCAGG	-3.52 ± 0.4	
UUCUAGCAAUAUUACGCCGA	-0.96 ± 0.23	0.163 ± 0.25
UUCUAGCAAUAUUACGCGAC	-1.97 ± 0.38	
UUCUAGCAAUAUUACGCGGG	-3.28 ± 0.23	-2.29 ± 0.22
UUCUAGCAAUAUUACGCGUC	-3.14 ± 0.39	-1.45 ± 0.25
UUCUAGCAAUAUUACGCUUA	-1.24 ± 0.12	-0.839 ± 0.14
UUCUAGCAAUAUUACGCUUU	-3.89 ± 0.26	-1.82 ± 0.22
UUCUAGCAAUAUUACGGAAA		-1.4 ± 0.45
UUCUAGCAAUAUUACGGAUU	-2.7 ± 0.15	-0.761 ± 0.14
UUCUAGCAAUAUUACGGCUG	-2.38 ± 0.21	-1.6 ± 0.2
UUCUAGCAAUAUUACGGGAA	-2.38 ± 0.19	-2.8 ± 0.28

From the supplement of paper PMC7877785
